Assay results as given in US20120316071A1 (published 2012).
Numbering of substitutions follows the chain as printed. In names and notes the source's numbering stands.

T1: rHuman Erythropoietin R/Fc Chimera, CF (R&D Systems Cat#963-ER) (human, UniProt P19235 25-250)
T1 construct: Bought recombinant protein; also called EPO R; EPO R/Fc; Fc part of the bought chimera not given
T1 sequence (looked up): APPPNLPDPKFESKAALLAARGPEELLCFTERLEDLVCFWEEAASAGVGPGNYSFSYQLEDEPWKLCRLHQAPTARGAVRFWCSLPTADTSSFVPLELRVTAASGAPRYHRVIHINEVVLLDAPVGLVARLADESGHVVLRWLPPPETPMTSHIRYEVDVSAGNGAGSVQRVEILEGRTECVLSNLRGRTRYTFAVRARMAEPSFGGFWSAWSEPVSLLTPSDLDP

B1: Fab VH5-51_IGHD5-18*01>3_IGHJ4*01 G100K/G104T S28N & V3-4_IGLJ1*01 (Fab, V domains shown)
VH: EVQLVQSGAEVKKPGESLKISCKGSGYNFTSYWIGWVRQMPGKGLEWMGIIYPGDSDTRYSPSFQGQVTISADKSISTAYLQWSSLKASDTAMYYCARRKYSYTYDYFDYWGQGTLVTVSS
VL: QTVVTQEPSFSVSPGGTVTLTCGLSSGSVSTSYYPSWYQQTPGQAPRTLIYSTNTRSSGVPDRFSGSILGNKAALTITGAQADDESDYYCVLYMGSGISYVFGTGTKVTVL
notes: Fab from E. coli: VH-CH1 from Plasmid A with His6 and Flag tags, VL with lambda CL from Plasmid E; also called KT S28N
B2: Fab VH5-51_IGHD5-18*01>3_IGHJ4*01 G100K/G104T G35A & V3-4_IGLJ1*01 (Fab, V domains shown)
VH: B1 VH with N28S, G35A
VL: B1 VL
notes: Fab from E. coli: VH-CH1 from Plasmid A with His6 and Flag tags, VL with lambda CL from Plasmid E; also called KT G35A
B3: Fab VH1-46_IGHD6-6*01_IGHJ1*01 S104C & L6_IGKJ1*01 (Fab, V domains shown)
VH: QVQLVQSGAEVKKPGASVKVSCKASGYTFTSYYMHWVRQAPGQGLEWMGIINPSGGSTSYAQKFQGRVTMTRDTSTSTVYMELSSLRSEDTAVYYCAREEYSSCSAEYFQHWGQGTLVTVSS
VL: not shown
notes: Fab; The VH was cloned into Plasmid A (CH1, His6 and Flag tags) and the kappa VL into Plasmid C (kappa CL); expressed in E. coli
B4: Fab VH1-46_IGHD6-6*01_IGHJ1*01 S104R & L6_IGKJ1*01 (Fab, V domains shown)
VH: B3 VH with C104R
VL: not shown
notes: as for B3
B5: Fab VH5-51_IGHD5-18*01>3_IGHJ4*01 G100K/G104T (H:KT) & V3-4_IGLJ1*01 M94A (Fab, V domains shown)
VH: B1 VH with N28S
VL: B1 VL with M94A
notes: Fab; Expressed from Plasmid A (CH1, His6 and Flag tags) and Plasmid E (lambda CL); also called KT & M94A
B6: Fab VH5-51_IGHD5-18*01>3_IGHJ4*01 G100K/G104T (H:KT) & V3-4_IGLJ1*01 Y93A (Fab, V domains shown)
VH: B1 VH with N28S
VL: B1 VL with Y93A
notes: Fab; Expressed from Plasmid A (CH1, His6 and Flag tags) and Plasmid E (lambda CL); also called KT & Y93A
B7: Fab VH5-51_IGHD5-18*01>3_IGHJ4*01 G100K/G104T (H:KT) & V3-4_IGLJ1*01 S99A (Fab, V domains shown)
VH: B1 VH with N28S
VL: B1 VL with S99A
notes: Fab; Expressed from Plasmid A (CH1, His6 and Flag tags) and Plasmid E (lambda CL); also called KT & S99A
B8: Fab VH5-51_IGHD5-18*01>3_IGHJ4*01 G100K/G104T (H:KT) & V3-4_IGLJ1*01 S96A (Fab, V domains shown)
VH: B1 VH with N28S
VL: B1 VL with S96A
notes: Fab; Expressed from Plasmid A (CH1, His6 and Flag tags) and Plasmid E (lambda CL); also called KT & S96A
B9: Fab VH1-46_IGHD6-6*01_IGHJ1*01 S102A/S103P/S104F/H111F (APFF) & L6_IGKJ1*01 S76L (Fab, V domains shown)
VH: B3 VH with S102A, S103P, C104F, H111F
VL: EIVLTQSPATLSLSPGERATLSCRASQSVSSYLAWYQQKPGQAPRLLIYDASNRATGIPARFSGSGSGTDFTLTILSLEPEDFAVYYCQQRSNWPPWTFGQGTKVEIKR
notes: Fab made in E. coli: VH in plasmid A (CH1, His6 and Flag tags), VL in plasmid C (kappa CL); also called H:APFF & L6_IGKJ1*01 S76L
B10: Fab VH1-46_IGHD6-6*01_IGHJ1*01 S102A/S103P/S104F/H111F (APFF) & L6_IGKJ1*01 S76G (Fab, V domains shown)
VH: B3 VH with S102A, S103P, C104F, H111F
VL: B9 VL with L76G
notes: Fab made in E. coli: VH in plasmid A (CH1, His6 and Flag tags), VL in plasmid C (kappa CL); also called H:APFF & L6_IGKJ1*01 S76G
B11: Fab VH1-46_IGHD6-6*01_IGHJ1*01 S102A/S103P/S104F/H111F (APFF) & L6_IGKJ1*01 S76Y (Fab, V domains shown)
VH: B3 VH with S102A, S103P, C104F, H111F
VL: B9 VL with L76Y
notes: Fab made in E. coli: VH in plasmid A (CH1, His6 and Flag tags), VL in plasmid C (kappa CL); also called H:APFF & L6_IGKJ1*01 S76Y
B12: Fab VH1-46_IGHD6-6*01_IGHJ1*01 S102A/S103P/S104F/H111F (APFF) & L6_IGKJ1*01 S76T (Fab, V domains shown)
VH: B3 VH with S102A, S103P, C104F, H111F
VL: B9 VL with L76T
notes: Fab made in E. coli: VH in plasmid A (CH1, His6 and Flag tags), VL in plasmid C (kappa CL); also called H:APFF & L6_IGKJ1*01 S76T

target: T2, Recombinant Human DLL4 (delta-like protein 4) (human, UniProt Q9NR61 27-524); assay: ECL (MSD) binding assay, Fab on immobilized DLL4
T2 construct: also called rHuman DLL4; Delta-like 4

Row | ECL signal | Binder
1 | 17300 | B1
2 | 19700 | B2

target: T3, Recombinant Human DLL4 (delta-like protein 4) (human, UniProt Q9NR61 27-529); assay: ECL (MSD) 96-well plate assay; plate coated with 15 µg/mL DLL4; Fab 0.004 µM
T3 construct: Bought recombinant protein (R&D Systems Cat#1506-D4/CF); also called rHuman DLL4; Delta-like 4

Row | Signal/Noise | Binder
3 | 8.4 | B3
4 | 28.6 | B4

target: T2, Recombinant Human DLL4 (delta-like …); assay: ELISA, Fab on plate-coated DLL4

Row | ELISA (Signal-Noise) | Binder
5 | 0.09 | B1
6 | 0.06 | B2

target: T3, Recombinant Human DLL4 (delta-like …); assay: ECL (MSD) 96-well plate assay; plate coated with 30 µg/mL DLL4; Fab 0.02 µM

Row | Signal/Noise | Binder
7 | 9.9 | B3
8 | 23.4 | B4

target: T1, rHuman Erythropoietin R/Fc Chimera, CF …; assay: ECL multispot (MSD) binding assay, antigen spotted on plate, Fab 0.04 uM;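 note: purified Fab incubated 1 h at 20 °C on antigen spots, detected via TAG-labelled antibody, ECL read against each well's blank, with signal-to-blank of at least 4 scored as binder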

Row | ECL signal | Binder
9 | 614 | B5
10 | 602 | B6
11 | 693 | B7

target: T4, rHuman ErbB2/Fc Chimera, CF (R&D Systems Cat#1129-ER) (human, UniProt P04626 23-652); assay: as above
T4 construct: Bought recombinant protein; also called human epidermal growth factor 2 receptor; Fc part of the bought chimera not given

Row | ECL signal | Binder
12 | 1280 | B8
13 | 1200 | B5
14 | 1320 | B7

target: T5, rHuman Notch-1/Fc Chimera, CF (R&D Systems Cat#3647-TK) (human, UniProt P46531 19-526); assay: as above
T5 construct: Bought recombinant protein; Fc part of the bought chimera not given

Row | ECL signal | Binder
15 | 574 | B5
16 | 725 | B6
17 | 674 | B7

target: T6, rHuman P-Cadherin/Fc Chimera, CF (R&D Systems Cat#861-PC) (human, UniProt P22223 108-654); assay: as above
T6 construct: Bought recombinant protein; Fc part of the bought chimera not given

Row | ECL signal | Binder
18 | 491 | B8
19 | 472 | B5
20 | 497 | B6
21 | 500 | B7

target: T7, Recombinant Human DLL4 (R&D Systems Cat#1506-D4/CF) (human, UniProt Q9NR61 27-524); assay: as above
T7 construct: Bought recombinant protein; also called delta-like protein 4; rHuman DLL4

Row | ECL signal | Binder
22 | 32300 | B8
23 | 35300 | B5
24 | 8110 | B6
25 | 18200 | B7

target: T8, rHuman EGF R/Fc Chimera, CF (R&D Systems Cat#344-ER) (human, UniProt P00533 25-645); assay: as above
T8 construct: Bought recombinant protein; also called epidermal growth factor receptor; Fc part of the bought chimera not given

Row | ECL signal | Binder
26 | 1000 | B8
27 | 1130 | B5
28 | 956 | B7

target: T9, rHuman CD44/Fc Chimera, CF (R&D Systems Cat#3660-CD) (human, UniProt P16070 21-220); assay: as above
T9 construct: Bought recombinant protein; Fc part of the bought chimera not given

Row | ECL signal | Binder
29 | 633 | B5
30 | 700 | B6
31 | 670 | B7

target: T10, Recombinant Human DLL4 (delta-like protein 4) (human, UniProt Q9NR61 27-524); assay: ECL (Meso Scale Discovery) binding assay on immobilised DLL4, Fab 10 nM
T10 construct: also called rHuman DLL4

Row | Signal [10 nM Fab] | Binder
32 | 13700 | B9
33 | 13400 | B10
34 | 14800 | B11
35 | 15700 | B12
